The labels stand for the following.
B1: MH5.23 (antibody, IgG1, V domains shown)
VH: QVQLVQSGAEVKKPGASVKVSCKASGYTFTDFYMNWVRQAPGQGLEWMGRIYPASGNTYYAQKFQGRVTMTRDTSTSTVYMELSSLRSEDTAVYYCARGVWYFDSWGQGTLVTVSS
VL: DIQMTQSPSSLSASVGDRVTITCRASQGIRTNLAWFQQKPGKAPKSLIYAASSLQSGVPSRFSGSGSGTDFTLTISSLQPEDFATYYCQQYANYPRTFGGGTKVEIK
notes: IgG1; also called C-KIT-MH5.23
B2: MH5.25 (antibody, IgG1, V domains shown)
VH: B1 VH with S105E
VL: B1 VL
notes: IgG1
B3: MH5.36 (antibody, IgG1, V domains shown)
VH: B1 VH with D31N, F32Y, S105E
VL: B1 VL
notes: IgG1
B4: MH5.12 (antibody, IgG1, V domains shown)
VH: B1 VH with F32H
VL: B1 VL
notes: IgG1
B5: TTP2 (antibody, IgG1, V domains shown)
VH: B1 VH with F32Y, A54G, W101Y, F103Y, S105Y
VL: B1 VL with A92N, N93S, R96H
notes: IgG1
B6: MH5.5 (antibody, IgG1, V domains shown)
VH: B1 VH with F32H, A54G, S55T, S105T
VL: B1 VL
notes: IgG1
B7: MH5.11 (antibody, IgG1, V domains shown)
VH: B1 VH with F32H, F103Y, S105Y
VL: B1 VL
notes: IgG1
B8: MH5.31 (antibody, IgG1, V domains shown)
VH: B1 VH with D31N, F32Y, A54G, S55A, S105T
VL: B1 VL
notes: IgG1
B9: MH5.21 (antibody, IgG1, V domains shown)
VH: B1 VH with A54G, S55A, S105E
VL: B1 VL
notes: IgG1
B10: MH5.3 (antibody, IgG1, V domains shown)
VH: B1 VH with F32H, A54G, S55T, F103Y, S105Y
VL: B1 VL
notes: IgG1
B11: MH6 (antibody, IgG1, V domains shown)
VH: B1 VH with F32Y, A54G, W101Y, F103Y, S105Y
VL: B1 VL with A50S, A92N, N93S, R96K
notes: IgG1
B12: MH5.26 (antibody, IgG1, V domains shown)
VH: B1 VH with D31N, F32Y, A54G, S55T
VL: B1 VL
notes: IgG1
B13: MH5.19 (antibody, IgG1, V domains shown)
VH: B1 VH with A54G, S55A
VL: B1 VL
notes: IgG1
B14: MH5.20 (antibody, IgG1, V domains shown)
VH: B1 VH with A54G, S55A, S105T
VL: B1 VL
notes: IgG1
B15: MH5.16 (antibody, IgG1, V domains shown)
VH: B1 VH with A54G, S55T, S105T
VL: B1 VL
notes: IgG1
B16: TTP3 (antibody, IgG1, V domains shown)
VH: B1 VH with F32Y, A54G, W101Y, F103L, S105Y
VL: B1 VL with I29V, A50S, A92N, N93A, R96K
notes: IgG1
B17: MH5.30 (antibody, IgG1, V domains shown)
VH: B1 VH with D31N, F32Y, A54G, S55A
VL: B1 VL
notes: IgG1
B18: MH5.27 (antibody, IgG1, V domains shown)
VH: B1 VH with D31N, F32Y, A54G, S55T, S105T
VL: B1 VL
notes: IgG1
B19: MH5.28 (antibody, IgG1, V domains shown)
VH: B1 VH with D31N, F32Y, A54G, S55T, S105E
VL: B1 VL
notes: IgG1
B20: TTP4 (antibody, IgG1, V domains shown)
VH: B1 VH with F32Y, A54G, W101Y, F103Y, S105Y
VL: B1 VL with I29V, A50S, A92N, N93A, R96H
notes: IgG1
B21: MH5.9 (antibody, IgG1, V domains shown)
VH: B1 VH with F32H, A54G, S55A, S105T
VL: B1 VL
notes: IgG1
B22: MH5.13 (antibody, IgG1, V domains shown)
VH: B1 VH with F32H, S105T
VL: B1 VL
notes: IgG1
B23: MH5.7 (antibody, IgG1, V domains shown)
VH: B1 VH with F32H, A54G, S55A, F103Y, S105Y
VL: B1 VL
notes: IgG1
B24: MH5.17 (antibody, IgG1, V domains shown)
VH: B1 VH with A54G, S55T, S105E
VL: B1 VL
notes: IgG1
B25: MH5.32 (antibody, IgG1, V domains shown)
VH: B1 VH with D31N, F32Y, A54G, S55A, S105E
VL: B1 VL
notes: IgG1
B26: MH5.14 (antibody, IgG1, V domains shown)
VH: B1 VH with F32H, S105E
VL: B1 VL
notes: IgG1
B27: MH5.29 (antibody, IgG1, V domains shown)
VH: B1 VH with D31N, F32Y, A54G, S55A, F103Y, S105Y
VL: B1 VL
notes: IgG1
B28: MH5.18 (antibody, IgG1, V domains shown)
VH: B1 VH with A54G, S55A, F103Y, S105Y
VL: B1 VL
notes: IgG1
B29: MH5.8 (antibody, IgG1, V domains shown)
VH: B1 VH with F32H, A54G, S55A
VL: B1 VL
notes: IgG1
B30: TTP6 (antibody, IgG1, V domains shown)
VH: B1 VH with F32Y, A54G, W101Y, F103Y, S105Y
VL: B1 VL with I29V, A92N, N93A, R96H
notes: IgG1
B31: F-C5 (antibody, IgG1, V domains shown)
VH: B1 VH with F32Y, A54G, W101Y, S105E
VL: B1 VL with I29V, L54R, A92N, N93S
notes: IgG1; also called C-KIT-F-C5; F-05
B32: C-B12 (antibody, IgG1, V domains shown)
VH: B1 VH with F32Y, A54G, W101Y, Y102E, S105Y
VL: B1 VL with I29V, T31N, S53Y, L54R, A92N, N93S
notes: IgG1; also called C-KIT-C-B12
B33: D-A10 (antibody, IgG1, V domains shown)
VH: B1 VH with F32Y, A54G, W101Y, S105T
VL: B1 VL with I29V, L54R, A92N, N93S
notes: IgG1; also called C-KIT-D-A10
B34: F-F2 (antibody, IgG1, V domains shown)
VH: B1 VH with F32Y, A54G, W101Y, F103Q, S105Y
VL: B1 VL with I29V, L33V, L54R, A92N, N93S
notes: IgG1; also called C-KIT-F-F2
B35: C-A7 (antibody, IgG1, V domains shown)
VH: B1 VH with F32Y, M48I, A54G, W101Y
VL: B1 VL with I29V, T31N, L33V, A50Y, A92N, N93S
notes: IgG1; also called C-KIT-C-A7
B36: MH11 (antibody, IgG1, V domains shown)
VH: B1 VH with F32Y, A54G, W101Y, F103Y, S105Y
VL: B1 VL with A92N, N93A
notes: IgG1; also called C-KIT-MH11
B37: E-E10 (antibody, IgG1, V domains shown)
VH: B1 VH with F32Y, A54G, S105Y
VL: B1 VL with I29V, L33V, A50S, A92N, N93S
notes: IgG1; also called C-KIT-E-E10

Where a chain is given by its changes, count along the chain named.

One experiment has as its target T1, human C-KIT, full length, on cells (human, UniProt P10721 26-976).
T1 construct: full-length cDNA stably transfected in CHO-K1; also used here for endogenous C-KIT of TF-1 cells; also called human C-KIT+ CHO-K1 cells; C-KIT on TF-1 cells
The experiment in a line: flow cytometry, C-KIT-transfected CHO-K1 cells, IgG1 format. Background: A flow cytometer gives signals particle by particle.
Consider B1, for which the 50% effective concentration (EC50 (read off the curve)) (in general, the midpoint of the concentration-response curve) was around 0.2 µg/mL.

The next experiment addresses T2, human C-KIT-Fc (human, UniProt P10721 26-524).
T2 construct: also called biotinylated human C-KIT-Fc; not shown: Fc part not described
As to the kind of experiment: direct ELISA. (ELISA stands for enzyme-linked immunosorbent assay.)
In the case of B2, the binding result is recorded as “binds”. For B3, the binding result was “binds”. The same measure, in the same setting: under B4 stands “binds”. Turning to B5, the binding result is recorded as “binds”. In the case of B6, the binding result is recorded as “binds”.

As for B7, the binding result is given as “binds”. Same read-out and setting: under B8 stands “binds”; under B9, “binds”.

In the case of B10, the binding result was “binds”. Still for that read-out and setting: under B11 stands “binds”; under B12, “binds”. Still for that read-out and setting: under B13 stands “binds”; under B14, “binds”; under B15, “binds”.

Take B16: the binding result is given as “binds”.

As to B17, the binding result is reported as “binds”. Same read-out and setting: under B18 stands “binds”; under B19, “binds”; under B20, “binds”.

As to B21, the binding result was “binds”.

Take B22: the binding result was “binds”. The same measure, in the same setting: the result for B23 reads “binds”.

For B24, the binding result is on record as “binds”. Still for that read-out and setting: the result for B25 reads “binds”; that for B26, “binds”. B27: the binding result is “binds”.

For the molecule B28, the binding result is listed as “binds”.

For B29, the binding result is on record as “binds”. On the same count and under the same terms, under B30 stands “binds”.

The target in a further experiment is T1, human C-KIT, full length, on cells. The experiment in a line: flow cytometry, C-KIT-transfected CHO-K1 cells, IgG1 format. This is another data set of the same source.
With B5, the binding result was “binds”.

B11: the binding result was “binds”.

For the molecule B16, the binding result is given as “binds”. On the same count and under the same terms, the result for B20 reads “binds”; that for B30, “binds”.

The target of the next experiment is T2, human C-KIT-Fc. As to the kind of experiment: HTRF competition vs Tb-h37M IgG1. (In general: Time-resolved FRET reads energy transfer from a long-lived donor to a nearby acceptor.)
Regarding B31, the half-inhibitory concentration (IC50) (as a rule, the concentration needed to halve the response being measured) was determined as 0.031 µg/mL. The molecule B32 yielded a half-inhibitory concentration (IC50) of 0.066 µg/mL. Take B33: the half-inhibitory concentration (IC50) was 0.027 µg/mL.

B34 returned a 50% inhibitory concentration (IC50) of 0.046 µg/mL.

As to B35, the 50% inhibitory concentration (IC50) turned out to be 0.037 µg/mL. On the same count and under the same terms, the result for B36 reads 0.051 µg/mL. On the same count and under the same terms, under B37 stands 0.031 µg/mL.

The target of a further experiment is T3, cynomolgus monkey C-KIT-Fc (cynomolgus monkey).
T3 construct: also called cyno C-KIT-Fc
As to the kind of experiment: HTRF competition vs Tb-h37M IgG1.
Consider B31, for which the half-maximal inhibitory concentration (IC50) amounted to 0.079 µg/mL.

For B32, the 50% inhibitory concentration (IC50) amounted to 0.166 µg/mL. For B33, the 50% inhibitory concentration (IC50) was found to be 0.059 µg/mL.

For the molecule B34, the IC50 was found to be 0.121 µg/mL. Still for that read-out and setting: under B35 stands 0.081 µg/mL; under B36, 0.101 µg/mL; under B37, 0.097 µg/mL.

A further experiment addresses T2, human C-KIT-Fc. As to the kind of experiment: HTRF competition vs Tb-h37M IgG1. This is another data set of the same source.
B1 gave an IC50 of 2.02 µg/mL.

The next experiment has as its target T3, cynomolgus monkey C-KIT-Fc. As to the kind of experiment: HTRF competition vs Tb-h37M IgG1. This is another data set of the same source.
As for B1, the half-inhibitory concentration (IC50) came to 3.26 µg/mL.

Values taken from patent US20200283521A1 (GRANULAR THERAPEUTICS, published 2020).
